In US20170066831A1 (Janssen / Centocor, published 2017):
Residue numbers refer to the chain shown, from its start.

Legend:
Assay in all cases: SPR, ProteOn XPR36, 25 C; mAb captured on anti-Fc surface, ST2L-D1D2 (HH-ST2L) variant injected; 1:1 model
A78R = molecular target: T1, A78R
T1 construct: also called HH-ST2L (ST2L-D1D2) variant A78R
T1 receptor fragment (Domains I and II): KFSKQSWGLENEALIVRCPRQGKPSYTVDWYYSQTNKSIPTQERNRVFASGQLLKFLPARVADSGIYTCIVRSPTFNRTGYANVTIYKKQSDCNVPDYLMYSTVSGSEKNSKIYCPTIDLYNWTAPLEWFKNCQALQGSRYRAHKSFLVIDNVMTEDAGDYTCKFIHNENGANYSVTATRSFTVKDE
Procedure: (§1) Binding studies were performed using the ProteOn XPR36 Protein Interaction Array system (Bio-Rad) (Bravman T, et al. Anal Biochem 358:281-288, 2006). […] Individual anti-ST2L mAb was then captured by flowing (1 μg/mL) antibody solution prepared in PBS containing 0.5% Nonidet P-40 and 0.5% Na-deoxycholate). The signal in the surfaces reached ˜250 resonance units (RU, 1 RU=1 pg protein/mm²) in the anti-Fc-coated surfaces, confirming that these antibodies specifically capture anti-ST2L mAbs. After 90° rotation of the fluid system, wild type of ST2L-D1D2 or variant proteins (0.5 mg/mL in PBS containing 0.5% Nonidet P-40 and 0.5% Na-deoxycholate) was injected in the parallel flow channels. All of these assays were performed at 25° C. The ST2L-D1D2-dependent signals on the surfaces were obtained by double referencing, subtracting the response observed on surfaces immobilizing the antibodies alone, and the signal observed injecting the vehicle alone (which allows correction for binding-independent responses). The resulting sensorgrams were fitted by the simplest 1:1 interaction model (ProteOn analysis software), to obtain the corresponding association and dissociation rate constants (kₐ and kd).

69GQL71-->RDR = molecular target: T2, 69GQL71-->RDR
T2 construct: also called HH-ST2L (ST2L-D1D2) variant with 69GQL71 changed to RDR
T2 receptor fragment (Domains I and II): T1 receptor fragment (Domains I and II) with G51R, Q52D, L53R, R60A
Procedure: as §1

[1] = molecular target: T3, HH-ST2L variant 93NL94 (substitution 93TF94 to 93NL94) (human, UniProt Q01638 19-205)
T3 chain: T1 receptor fragment (Domains I and II) with R60A, T75N, F76L
Procedure: as §1

A80E = molecular target: T4, A80E
T4 construct: also called HH-ST2L (ST2L-D1D2) variant A80E
T4 receptor fragment (Domains I and II): T1 receptor fragment (Domains I and II) with R60A, A62E
Procedure: as §1

E61K = molecular target: T5, E61K
T5 construct: also called HH-ST2L (ST2L-D1D2) variant E61K
T5 receptor fragment (Domains I and II): T1 receptor fragment (Domains I and II) with E43K, R60A
Procedure: as §1

108QSD110-->PPS = molecular target: T6, 108QSD110-->PPS
T6 receptor fragment (Domains I and II): T1 receptor fragment (Domains I and II) with R60A, Q90P, S91P, D92S
Procedure: as §1

K55E = molecular target: T7, K55E
T7 construct: also called HH-ST2L (ST2L-D1D2) variant K55E
T7 receptor fragment (Domains I and II): T1 receptor fragment (Domains I and II) with K37E, R60A
Procedure: as §1

Kd (A78R): 0.0104 nM | koff (A78R): 0.00013 s⁻¹ | kon (A78R): 1.24e+07 M⁻¹ s⁻¹ | Kd (69GQL71-->RDR): 0.0096 nM | koff (69GQL71-->RDR): 9.27e-05 s⁻¹ | kon (69GQL71-->RDR): 1.02e+07 M⁻¹ s⁻¹ | koff [1]: 0.000625 s⁻¹ | kon [1]: 1.27e+07 M⁻¹ s⁻¹ | Kd (A80E): 0.011 nM | koff (A80E): 0.000127 s⁻¹ | kon (A80E): 1.15e+07 M⁻¹ s⁻¹ | Kd (E61K): 0.0081 nM | koff (E61K): 0.000126 s⁻¹ | kon (E61K): 1.55e+07 M⁻¹ s⁻¹ | Kd (108QSD110-->PPS): 0.01 nM | koff (108QSD110-->PPS): 0.000119 s⁻¹ | kon (108QSD110-->PPS): 1.28e+07 M⁻¹ s⁻¹ | Kd (K55E): 0.01 nM | koff (K55E): 0.000129 s⁻¹ | kon (K55E): 1.26e+07 M⁻¹ s⁻¹
B1: STLM208 (antibody, V domains shown)
VH: EVQLLESGGGLVQPGGSLRLSCAASGFTFSIYDMIWVRQAPGKGLEWVSSIRGEGGGTYYADSVKGRFTISRDNSKNTLYLQMNSLRAEDTAVYYCARDPWSTEGSFFVLDYWGQGTLVTVSS
VL: EIVLTQSPATLSLSPGERATLSCRASQSVDDDLAWYQQKPGQAPRLLIYDASNRATGIPARFSGSGSGTDFTLTISSLEPEDFAVYYCQQYITAPLTFGQGTKVEIK
notes: frameworks VH3-23 / Vk-L6
